Measurements reported in the supplement of paper PMC9170038.

Tests used:
MS2 coat protein [1] = experiment: apparent KD of MS2 coat protein, switch ON state; designed switch direction (-1 OFF switch, 1 ON switch): -1; higher = weaker reporter binding; conditions: FMN input: 0 or 200 uM; Eterna round: R93 (includes R88 designs)
Procedure, shortened: (§1)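 Normalised binding curves from single clusters were fitted, and the median fit for each design is given as apparent KD. The clusters held designed RNA switches transcribed on-chip from Illumina sequencing clusters. These were titrated with SNAP-549-labelled MS2 coat protein (twofold steps from 0.7 or 1.5 nM to 3 µM, 0.8–1.5 h to 10–20 min per step) in 100 mM Tris-HCl pH 7.5, 80 mM KCl, 4 mM MgCl2, without or with constant ligand.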

MS2 coat protein [2] = experiment: apparent KD of MS2 coat protein, switch OFF state (with FMN for OFF switches, without FMN for ON switches); designed switch direction (-1 OFF switch, 1 ON switch): -1; higher = weaker reporter binding; conditions: FMN input: 0 or 200 uM; Eterna round: R93 (includes R88 designs)
Procedure, shortened: as §1

| Sequence | apparent KD of MS2 coat protein (MS2 coat protein [1]) [nM] | apparent KD of MS2 coat protein (MS2 coat protein [2]) [nM] |
| --- | --- | --- |
| CCUAUGUCAGGAUAUCAGUAGUAAAAAAAAAAAAUUACUACUGAGAAGGGACAUGAGGAUCACCCAUGUCACUU [EX4 311: Super Stable 11] | 28.5 | 18.8 |
| CUCAAGUGAGGAUAUUCAAGAAAAGAAAAGAAAGAAAAGAAGAAGAAGGCACAUGAGGAUCACCCAUGUAAGAA [EteRNA is fun!] | 34.9 | 57.5 |
| CUCAAGUGAGGAUAUUUAAGAAAAGAAGAGAAAGAAAAGAAAAAGAAGGCACAUGAGGAUCACCCAUGUAAGAA [EteRNA is fun!] | 31.5 | 32.8 |
| CUCAUGUCAGGAUAUCAGUAGUAAAAAAAAAAAAUUACUACUGAGAAGGGACAUGAGGAUCACCCAUGUCCCUU [EX4 301: Super Stable 1] | 20.4 | 16.7 |
| CUCAUGUGAGGAUAUCAGUAGUAAAAAAAAAAAAUUACUACUGAGAAGGCACAUGAGGAUCACCCAUGUGCCUU [EX4 325: Super Stable 25] | 18.9 | 15.5 |
| CUCAUGUGAGGAUAUCAGUAGUAAAAAAAUAAAAUUACUACUGAGAAGGCACAUGAGGAUCACCCAUGUGCCAA [EX4 337: Super Stable 37] | 21.3 | 27.6 |
| CUCUAGUCAGGAUAUGGAAGAAAAGAAGAGAAAGAAAAGAACCAGAAGGGACAUGAGGAUCACCCAUGUAAGAA [EteRNA is fun!] | 78.2 | 41.8 |
| CUCUUGUAAGGAUAUAAAUGAAAAGAAGUGAAAGAAAAGAAUUAGAAGGUACAUGAGGAUCACCCAUGUUAGAA [EteRNA is fun!] | 22.1 | 18.5 |
| CUCUUGUGAGGAUAUGAAAGAAAAGAAGAGAAAGAAAAGAAUCAGAAGGCACAUGAGGAUCACCCAUGUAAGAA [EteRNA is fun!] | 27.4 | 106 |
| CUCUUGUGAGGAUAUGUAAGAAAAGAAAAGAAAGAAAAGAAACAGAAGGCACAUGAGGAUCACCCAUGUAAGAA [EteRNA is fun!] | 31.7 | 45.9 |
| GAAAAGGUAGGAUAUACGAAAAAAAAGGGUAAAAUAAAUAAACAUGAGGAUCACCCAUGUAGAAGGACCAAAAG [Mat - Exclusion 2 - Tesla mod - D39] | 30.1 | 49.6 |
| GAAAAGUCAGGAUAUACAGAAAAAAAAACGAAAAAAAAUCUGUAGAAGGGACAUGAGGAUCACCCAUGUAAAAG [Mat - Exclusion 4 - Mayanna - D123] | 52.6 | 38.7 |
| GAAAAGUGAGGAUAUACAGAUAAAAAAACGAAAAAAAAUCUGUAGAAGGCACAUGAGGAUCACCCAUGUAAAAA [Mat - Exclusion 4 - Mayanna - D106] | 31.7 | 29.8 |
| GAAAAGUGAGGAUAUGCGAAGGCGUCUGAUAGACGAGGCUAGCAGAAGGCACAUGAGGAUCACCCAUGUGGGAG [Mat - Exclusion 4 - Eli mod - D92] | 61.9 | 76.4 |
| GACUAGUCAGGAUAUACGAACAUGUCAAAAGACGUGAAGGAACAUGAGGAUCACCCAUGUAGAAGGGACUAGCA [Diamond 19] | 25.2 | 17.7 |
| GAUUAGUGAGGAUAUACAUGAGGAUCACCCAUGUGUAAAAAAAAACGCAAAAAAGAAUGUAGAAGGCACUAAAG [Mat - Exclusion 3 - Mayanna mod - D103] | 21.6 | 31.4 |
| GGCACUGUAGGAUAUACAUGAACAAUUGGCAUCCUCAGUCCACAUGAGGAUCACCCAUGUAGAAGGAUAGAAAA [Besorees] | 131 | 91.1 |
| GGCUAGUCAGGAUAUACGAACAUGUCAAAAGACGUGAAGGGACAUGAGGAUCACCCAUGUAGAAGGGACUAGCG [salish99-ex2-13] | 32.8 | 132 |
| GGGCCACAUGAGGAUCACCCAUGUAAGGAUAUGCUAGGGAUGGAAAAAAUUACGCAAAGCAGAAGGUACUAAAG [Janelle Amethyst 18 Mod 9 - Jieux - Exclusion 1] | 26.9 | 35.5 |
| GGGUAGUCAGGAUAUACAAACAUGUCAAAAGACGUGAAAAAACAUGAGGAUCACCCAUGUAGAAGGGACUACCC [Mat - Exclusion 2 - JL mod - D20] | 17.8 | 15 |
| GGUUGACGAGGAUAUACAUGAGGAUCACCCAUGUGAGAGAAAAAAGUGAGAAAGAAAAGUAGAAGGCGUUGACG [salish99-ex3-59] | 36.9 | 91.8 |
| GGUUGGCGAGGAUAUACAUGAGGAUCACCCAUGUGAGAGAAAAAAGUGAGGAGGAGGAGUAGAAGGCGCUGACG [salish99-ex3-18] | 28.4 | 97 |
